Molecular target: UKNP5.2.1 E2E1-I53-50A trimer (hepatitis C virus genotype 5, strain UKNP5.2.1)

B1: chimeric HEPC74 HC – VRC01 LC (antibody, V domains shown)
VH: QVQLVQSGAEVKKPGSSVKVSCTTSGGTYINYAISWVRQAPGQGLEWVGGMSPISNTPKYAQKFQGRVTITADESTSTTYMELSSLRPEDTAVYYCARDLLKYCGGGNCHSLLVDPWGQGTLVTVSS
VL: EIVLTQSPGTLSLSPGETAIISCRTSQYGSLAWYQQRPGQAPRLVIYSGSTRAAGIPDRFSGSRWGPDYNLTISNLESGDFGVYYCQQYEFFGQGTKVQVD
  neutralisation of UKNP5.2.1 HCVpp, IC50 (the only HCVpp neutralised): 4.4 µg/mL
